Data taken from patent publication US8344120B2, “Nucleic acid molecules encoding rage fusion proteins” (TransTech Pharma, Inc., priority 2006, dated 2013).

How the values were obtained:
Fc receptor = Fc receptor activation: TNF-α secretion from THP-1 cells; format: cell-based
Description: Fc stimulation results in TNF-α secretion.

animal model of stroke = experiment: Animal model of stroke (ischemia/reperfusion); format: in vivo, mice; settings: treated just prior to reperfusion
Protocol: For example, the RAGE fusion proteins of the present invention may also be used to treat stroke. […] In this model, the […] of a mouse is ligated and then reperfused to form an infarct. To assess the efficacy of RAGE fusion proteins to treat or prevent stroke, mice were treated with sRAGE or TTP-4000 or control immunoglobulin just prior to reperfusion. […] TTP-4000 was also compared to sRAGE in a disease relevant animal model of stroke. In this model, the […] of a mouse was ligated for 1 hour followed by 23 hours of reperfusion at which point the mice were sacrificed and the area of the infarct in the brain was assessed. […] After the nylon suture had been in place for 1 hour, the animal was re-anesthetized, rectal temperature was recorded and the suture was removed and the incision closed. Infarct volume was determined by anesthetizing the animals with an intraperitoneal injection of sodium pentobarbital (50 mg/kg) and then removing the brains. […] The infarct area in each section was determined with a computer-assisted image analysis system, consisting of a Power Macintosh computer equipped with a Quick Capture frame grabber card, Hitachi CCD camera mounted on a camera stand. […] The images were captured and the total area of infarct was determined over the sections. […] Summing the infarct volumes of the sections calculated the total infarct volume. […]

amphoterin (Ampho) = biological target: T1, amphoterin (Ampho) (Homo sapiens, UniProt P09429); experiment: In vitro ligand binding ELISA, immobilized amphoterin; settings: ligand 5 micrograms per well; fusion protein at increasing dilutions, 37° C. one hour
T1 sequence (P09429 1-215): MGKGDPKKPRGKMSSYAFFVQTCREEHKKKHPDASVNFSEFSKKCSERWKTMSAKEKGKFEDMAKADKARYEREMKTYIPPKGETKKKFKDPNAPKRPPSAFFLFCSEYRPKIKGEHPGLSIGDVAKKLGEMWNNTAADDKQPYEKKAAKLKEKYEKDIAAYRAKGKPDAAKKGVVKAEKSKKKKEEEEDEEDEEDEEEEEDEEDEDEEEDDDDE
Protocol: For example, the RAGE fusion protein may be used in a binding assay to identify potential RAGE ligands. In one example embodiment of such a binding assay, a known RAGE ligand may coated onto a solid substrate (e.g., Maxisorb plates) at a concentration of about 5 micrograms per well, where each well contains a total volume of about 100 microliters (4). The plates may be incubated at 4° C. overnight to allow the ligand to absorb or bind to the substrate. Alternatively, shorter incubation periods at higher temperature (e.g., room temperature) may be used. […] The RAGE fusion protein bound to the immobilized ligand may be detected in a variety of ways. […] The bound complex may be detected by adding the alkaline phosphatase substrate, para-nitrophenylphosphate (PNPP), and measuring conversion of PNPP to para-nitrophenol (PNP) as an increase in absorbance at 405 nm. […] In the absence of ligand (i.e., coating with only BSA) there was no increase in absorbance. […] Binding was detected by the addition of an immunodetection complex containing a monoclonal mouse anti-human IgG1 diluted 1:11,000 to a final assay concentration (FAC) of 21 ng/100 μL, a biotinylated goat anti-mouse IgG diluted 1:500, to a FAC of […], and an avidin-linked alkaline phosphatase. […]

binding to immobilized amphoterin (increase in absorbance at 405 nm) (amphoterin (Ampho)): specifically interact
B1: TTP-4000: four domain RAGE fusion protein: human RAGE N-terminal sequence (to position 251) linked to human IgG Fc (γ1) without hinge; SEQ ID NO: 34/56 (protein)
chain: QNITARIGEPLVLKCKGAPKKPPQRLEWKLNTGRTEAWKVLSPQGGGPWDSVARVLPNGSLFLPAVGIQDEGIFRCQAMNRNGKETKSNYRVRVYQIPGKPEIVDSASELTAGVPNKVGTCVSEGSYPAGTLSWHLDGKPLVPNEKGVSVKEQTRRHPETGLFTLQSELMVTPARGGDPRPTFSCSFSPGLPRHRALRTAPIQPRVWEPVPLEEVQLVVEPEGGAVAPPSVFLFPPKPKDTLMISRTPEVTCVVVDVSHEDPEVKFNWYVDGVEVHNAKTKPREEQYNSTYRVVSVLTVLHQDWLNGKEYKCKVSNKALPAPIEKTISKAKGQPREPQVYTLPPSRDELTKNQVSLTCLVKGFYPSDIAVEWESNGQPENNYKTTPPVLDSDGSFFLYSKLTVDKSRWQQGNVFSCSVMHEALHNHYTQKSLSLSPGK
stimulation of TNF-α release from cells (Fc receptor; conditions where human IgG stimulation of TNF-α release is detected): does not stimulate TNF-α release | TNF generated (Fc receptor; well precoated with 10 ug/well heat aggregated protein, THP-1 cells, 24 hours): less than 2 ng/well | reduction in infarct volume compared to sRAGE (animal model of stroke): significantly greater reduction in infarct volume
